± gives the uncertainty stated by the source.

This series can be described thus: amyloid nucleation score (Sup35N fusion, yeast selection) (log enrichment); library NNK2; higher = more nucleation; inactive = no reads after selection. Summed up: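 After 24 hours of induction with 100 μM copper sulfate, psi-negative yeast expressing peptides of 20 random codons fused to Sup35N were grown for 7 days at 30°C on medium lacking adenine and uracil. Input and output plasmid inserts were sequenced with Illumina, and sequences with under 100 input reads were discarded. Scores for nucleation are the DiMSum log enrichment of output over input reads, centred on the mode score of non-aggregating sequences.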
With MADTPSNFKYYLPKLFKG, the amyloid nucleation score entry was “inactive”.

In turn, MAGLTSWCGPHHTVWLTWNG gave an amyloid nucleation score of 0.939 ± 0.3.

For the substance MAHWSSSNSTVVLGCLAWML, the amyloid nucleation score was 6.17 ± 0.081.

MAKSCGRSCTCSRSKVSVGG: the amyloid nucleation score worked out at 0.52 ± 0.57.

MASTIWIMLVYDLNARKMHI came in with an amyloid nucleation score of 4.87 ± 0.073.

For the substance MATDDIN, the amyloid nucleation score was -0.359 ± 0.79.

For MCFSIRPPGVMRVMHLTLVW, the amyloid nucleation score is 0.135 ± 0.79.

For MCHVKFIT, the amyloid nucleation score worked out at 3.18 ± 0.067.

The substance MCYCLYNVGPCGDGH yielded an amyloid nucleation score of 1.23 ± 0.28.

Substance MCYHDSVNNERINMGVLLHV returned an amyloid nucleation score of 0.067 ± 0.56.

MDCILNYFFVLLLGHGNLLM came in with an amyloid nucleation score of -0.826 ± 0.54.

As to MDGIGTFNLSENR, the amyloid nucleation score result is “inactive”.

Substance MDIFCYTGRPTSAKRAS displayed an amyloid nucleation score of -1.05 ± 0.64.

As to MDKCETEMYIMSAHVFRRLW, the amyloid nucleation score was determined as 6.229 ± 0.048.

For the substance MDLVCVAKSDVQACTYSAPV, the amyloid nucleation score was 1.1 ± 0.39.

With MDLYCD, the amyloid nucleation score entry was “inactive”.

The substance MDTVMRLYVCVCCRSFLRIG came in with an amyloid nucleation score of 1.62 ± 0.35.

For the substance MEGITRFSPPKNSEYIVLAG, the amyloid nucleation score was -0.613 ± 0.44.

Regarding MFAFMNFRRTIVVYEVWGSY, the amyloid nucleation score result is “inactive”.

Regarding MFAVLSLDRGYHKAR, the amyloid nucleation score was -0.205 ± 0.55.

Take MFAVLTGSIFKWKWWTIGFR: the amyloid nucleation score is -0.265 ± 0.28.

In the case of MFCGDSCSTVPCCVCICFLY, the amyloid nucleation score came out at 5.02 ± 0.058.

As to MFCRTRALSRTGPTGQLLRV, the amyloid nucleation score turned out to be 3.56 ± 0.13.

MFDFCPIMTLF came in with an amyloid nucleation score of -0.771 ± 1.1.

The substance MFGNTGLTSYYALTGTRWLY displayed an amyloid nucleation score of -0.487 ± 0.79.

In turn, MFHCSSKACLPVVDVGVVVC returned an amyloid nucleation score of 0.96 ± 0.29.

MFHLRSNVMPTGLVRTPMLL had an amyloid nucleation score of 1.54 ± 0.44.

MFIMFIAVSFVGRMYGGHRH had an amyloid nucleation score of -0.44 ± 0.26.

Regarding MFVCYSRYIASEREPAACPI, the amyloid nucleation score result is “inactive”.

Consider MFVHLGGTWMQR, for which the amyloid nucleation score is 5.135 ± 0.046.

In turn, MFWKTWGVNCQATNRMEIRL came in with an amyloid nucleation score of 2.99 ± 0.055.

As for MFWRITGAI, the amyloid nucleation score was determined as 0.402 ± 0.34.

Take MGARSIRDRSSVGK: the amyloid nucleation score was -0.464 ± 1.1.

In turn, MGLNYLKQQAARYDEGGPS gave an amyloid nucleation score of 1.5 ± 0.42.

For the substance MGLTEEVIKWQGHVGWTWAG, the amyloid nucleation score stood at 1.55 ± 0.29.

Substance MGMAHFDSQPLGYILGASMC registered an amyloid nucleation score of -0.727 ± 0.79.

On to MGMLFMFVITKKSLVQDSLY, for which the amyloid nucleation score amounted to 2.64 ± 0.19.

In turn, MGPDMYVCKVWLGAVAYEMG came in with an amyloid nucleation score of 1.95 ± 0.4.

In turn, MGSAS showed an amyloid nucleation score of 0.682 ± 0.34.

Regarding MGVLWMFFSF, the amyloid nucleation score is 0.03 ± 0.4.

As to MGVSNIDIVSRILNPGAAAS, the amyloid nucleation score was 1.36 ± 0.41.

As for MHHIFYVGNLSW, the amyloid nucleation score result is “inactive”.

MHHQSSAFNQGHASPYLSWK had an amyloid nucleation score of 0.741 ± 0.39.

Substance MHKAFWPNLALFVMNGYGGV came in with an amyloid nucleation score of 0.304 ± 0.42.

In turn, MHLCADPAGFWDWN displayed an amyloid nucleation score of -0.446 ± 1.

For the substance MHQSQVMSLSDPAAGKSFWV, the amyloid nucleation score was -0.56 ± 0.79.

The substance MIDLTLIFLFLVYSD came in with an amyloid nucleation score of -0.827 ± 0.62.

For MIHYRWTHYNTRIGGYRYWE, the amyloid nucleation score turned out to be 3.54 ± 0.05.

Take MIMHNVANDWTVFYFLCRVV: the amyloid nucleation score was -0.723 ± 0.55.

The substance MIVMLESLRRTTSQP registered an amyloid nucleation score of 1.69 ± 0.21.

Regarding MIWGVT, the amyloid nucleation score amounted to 1.01 ± 0.4.

Substance MKRIRLGNQVRCEAANCRGR yielded an amyloid nucleation score of 1.1 ± 0.24.

For the substance MLARFSSHVPGTDVNPIGRQ, the amyloid nucleation score turned out to be 0.317 ± 0.5.

In turn, MLELSATMSVHVQRLNASGH registered an amyloid nucleation score of 9.009 ± 0.068.

Turning to MLLIRGHILIPGADLTIIPE, the amyloid nucleation score is -0.692 ± 0.56.

Substance MLMSNFCF registered an amyloid nucleation score of -0.077 ± 0.74.

MLSRNNCNALWYSIFS showed an amyloid nucleation score of -1.5 ± 1.

Substance MLSTTEVCVGPDRD had an amyloid nucleation score of 3.89 ± 0.088.

MLVCRWNACSVVLSVSGLAR registered an amyloid nucleation score of 0.718 ± 0.21.

With MLVNRFGGVA, the amyloid nucleation score is -0.402 ± 0.38.

MLVVLMFSLSDSI returned an amyloid nucleation score of 1.67 ± 0.1.

Substance MMFNSLCSYWTTDYFATPDL gave an amyloid nucleation score of 6.778 ± 0.062.

Consider MMGRTTWMDIKIYWENQCAE, for which the amyloid nucleation score is -0.176 ± 1.1.

For the substance MMNTMLHGIVVMNFSWVASW, the amyloid nucleation score was determined as 4.26 ± 0.053.

Turning to MMSEVLKDVSCHFIPLGGQV, the amyloid nucleation score is -0.694 ± 0.48.

As for MNFCGNRCPFSLYIPWTACV, the amyloid nucleation score was -0.664 ± 1.1.

As to MNGVLFMCFIH, the amyloid nucleation score was 3.86 ± 0.085.

MNIYEVSKYENGY came in with an amyloid nucleation score of 3 ± 0.071.

In turn, MNKNYFSGLPGGSVCYSVEY came in with an amyloid nucleation score of -0.732 ± 0.38.

Turning to MNLAVGWSHSPDQDLYYPML, the amyloid nucleation score is -0.339 ± 0.56.

MPGQFHFVMNFRINRNYIRS came in with an amyloid nucleation score of 5.92 ± 0.067.

The substance MPPGCRMIFALIVVVIQFNF displayed an amyloid nucleation score of 0.04 ± 0.76.

MPQSSRFCTNSFGNRHRRSW registered an amyloid nucleation score of -0.343 ± 1.1.

With MPTIRNWVCW, the amyloid nucleation score is 0.639 ± 0.47.

MQISKQTFPHNWVVYRSDYG displayed an amyloid nucleation score of -0.776 ± 1.1.

The substance MQKRRDSKYEYLVFGCDVCM returned an amyloid nucleation score of -1.13 ± 1.1.

With MQYCLGFDLNLRNYICHPGR, the amyloid nucleation score turned out to be 7.303 ± 0.063.

Take MRGAYLRFRSMCAGAAGKCD: the amyloid nucleation score result was “inactive”.

MRGGLGV: the amyloid nucleation score amounted to 0.492 ± 0.49.

As to MRLLILDPYAREQ, the amyloid nucleation score entry is “inactive”.

MRTKGIRQADVFCESYRFNT gave an amyloid nucleation score of -0.029 ± 0.65.

On to MSGVSAVLRDLFKYVELIIR, for which the amyloid nucleation score result was “inactive”.

On to MSPLH, for which the amyloid nucleation score is -0.181 ± 0.39.

MSPNLIMMHHCH yielded an amyloid nucleation score of 0.094 ± 0.41.

With MSSRTHLARRHPVMDVCCSR, the amyloid nucleation score is 6.639 ± 0.036.

Regarding MSWIGCYYYFNAQQHNSG, the amyloid nucleation score was 9.318 ± 0.052.

MSYAYKVRSCCVMFMMFRSW: the amyloid nucleation score is -0.336 ± 0.54.

For the substance MSYCNT, the amyloid nucleation score turned out to be 1.77 ± 0.11.

In the case of MTCCF, the amyloid nucleation score was -0.877 ± 1.1.

For the substance MTFNVFRNQALRPNCCKPNG, the amyloid nucleation score worked out at 3.09 ± 0.18.

Substance MTLMKDCDMNISHSARAKAS had an amyloid nucleation score of 0.255 ± 0.18.

MTRNGDLFS displayed an amyloid nucleation score of 0.657 ± 0.4.

MTYYRAYFAYLWVVRLWL yielded an amyloid nucleation score of 0.029 ± 0.32.

Turning to MVCVELFWFARLSLPGA, the amyloid nucleation score is 0.246 ± 1.1.

Take MVDKNNAKINHSR: the amyloid nucleation score result is “inactive”.

In turn, MVHHGGCAWMSSACTCNVHC came in with an amyloid nucleation score of 0.313 ± 0.27.

With MVIGNLGLLLEGLRVEYLNH, the amyloid nucleation score result was “inactive”.

On to MVKSHLMTKFCD, for which the amyloid nucleation score was -0.394 ± 0.34.

MVLNIDCFCDFYLALSCMSI: the amyloid nucleation score came to 5.58 ± 0.079.

On to MVLRKLTYILPTRLLGQRFL, for which the amyloid nucleation score result is “inactive”.

MVLVMCPLS: the amyloid nucleation score was 0.015 ± 0.25.

Turning to MVRVYSVCDKDHQMYNHFFR, the amyloid nucleation score was determined as 0.67 ± 0.44.

Take MVSGRPTVYKTSSLQTASAN: the amyloid nucleation score was -0.14 ± 0.65.

For the substance MVYELRRFRCLFITVSGVDS, the amyloid nucleation score entry was “inactive”.

Substance MWINHDPGWRCYYLYFPFL yielded an amyloid nucleation score of 3.59 ± 0.074.

MYCETLRRSILMVNMNPRNP showed an amyloid nucleation score of -0.114 ± 0.31.

Substance MYEGGSTLW came in with an amyloid nucleation score of -0.441 ± 0.45.

Take MYKVPTCPMFMVDNYYKLLN: the amyloid nucleation score result was “inactive”.

The substance MYLAGHLDCGGY showed an amyloid nucleation score of 3.27 ± 0.055.

MYLPMVDVIEVSYSVNLERG displayed an amyloid nucleation score of -0.311 ± 0.32.

In the case of MYLTCFWVGQDGKGRKDGGV, the amyloid nucleation score came to 5.62 ± 0.078.

On to MYRPINFITCSVRMFVVIVC, for which the amyloid nucleation score result is “inactive”.

The substance MYSISVNMKNSFRNL showed an amyloid nucleation score of 0.566 ± 0.66.

Take MYVRVDFVFSNADRTWNPLK: the amyloid nucleation score was determined as 3.76 ± 0.08.

Turning to NADLMGIKSVKGS, the amyloid nucleation score was -0.352 ± 1.1.

On to NAFGTSFCEIMRR, for which the amyloid nucleation score was 1.22 ± 0.33.

On to NAKCNSTGKTCQFGCQYP, for which the amyloid nucleation score came out at 1.51 ± 0.39.

NARFFNSFNSFM yielded an amyloid nucleation score of 3 ± 0.076.

The substance NASTRSGNYQFARHGLGYRR gave an amyloid nucleation score of 1.44 ± 0.17.

As for NAWDVTKSYQHVHSCSIMLV, the amyloid nucleation score entry is “inactive”.

As for NCASWLYGSCACVGLLDLFE, the amyloid nucleation score is -0.626 ± 0.41.

The substance NCGRTNGLCPGYVCVSRLAW registered an amyloid nucleation score of 1.09 ± 0.21.

With NCLYICVCGLCMFQKLRC, the amyloid nucleation score was -0.246 ± 0.76.

As to NCPPFHRMYLTSIIGSLSDD, the amyloid nucleation score was -0.306 ± 0.49.

As for NCVWNWRHWFTVVNSF, the amyloid nucleation score worked out at 1.95 ± 0.089.

In turn, NCWVVSQYTVVN gave an amyloid nucleation score of -0.77 ± 0.79.

In turn, NCYMSVLILVRLLGSHLKQS registered an amyloid nucleation score of -0.249 ± 1.1.

With NDGYFVFDALFFHR, the amyloid nucleation score is -2.34 ± 0.75.

Substance NDHSVHINYLIIGAIHNTVN yielded an amyloid nucleation score of 8.405 ± 0.065.

In the case of NDPGYLTTYI, the amyloid nucleation score is -0.418 ± 0.27.

Regarding NDRSSDWCCIPSKLRWSRSG, the amyloid nucleation score was 4.1 ± 0.057.

The substance NDSFPRDNFVESWQACEILM showed an amyloid nucleation score of -0.78 ± 0.44.

The substance NDWCRGENITALWDGYGSGL returned an amyloid nucleation score of 0.597 ± 0.46.

Substance NEFIEVALSLYRVNCQRNFI gave an amyloid nucleation score of -1.5 ± 0.53.

In turn, NEIARILEVRIGVEGYGGIF displayed an amyloid nucleation score of -0.722 ± 0.3.

NELLNTWRLLSCPWRIWSLR showed an amyloid nucleation score of 0.67 ± 0.26.

Regarding NETCGYLNKNWLL, the amyloid nucleation score was 0.04 ± 0.45.

Substance NETLSTCCLYHFKG showed an amyloid nucleation score of 4.04 ± 0.046.

The values are drawn from the supplement of paper PMC12042874.
